Test results reported in article PMC9240080 (Nature Communications, 2022).

Legend:
Assay in all cases: ELISA
Conditions in all cases: both partners purified
[1] = target: BtKY72-CoV RBD-His8-SpyTag003 (Bat coronavirus BtKY72, heterogeneous N-linked glycosylation)
[2] = target: RaTG13-CoV RBD-His8-SpyTag003 (Bat coronavirus RaTG13, heterogeneous N-linked glycosylation)
[3] = target: Rs4081-CoV RBD-His8-SpyTag003 (Bat SARS-like coronavirus Rs4081, heterogeneous N-linked glycosylation)
[4] = target: Rf1-CoV RBD-His8-SpyTag003 (Bat SARS-like coronavirus Rf1, heterogeneous N-linked glycosylation)
[5] = target: pangolin17 (pang17)-CoV RBD-His8-SpyTag003 (Pangolin coronavirus pang17, heterogeneous N-linked glycosylation)
[6] = target: BM48-31-CoV RBD-His8-SpyTag003 (Bat coronavirus BM48-31, heterogeneous N-linked glycosylation)
[7] = target: WIV1-CoV RBD-His8-SpyTag003 (Bat SARS-like coronavirus WIV1, heterogeneous N-linked glycosylation)
[8] = target: Yunnan2011 (Yun11)-CoV RBD-His8-SpyTag003 (Bat coronavirus Cp/Yunnan2011, heterogeneous N-linked glycosylation)
[9] = target: SHC014-CoV RBD-His8-SpyTag003 (Bat SARS-like coronavirus RsSHC014, heterogeneous N-linked glycosylation)
[10] = target: RmYN02-CoV RBD-His8-SpyTag003 (Bat coronavirus RmYN02, heterogeneous N-linked glycosylation)

Measured: binding result

B1: EY6A (antibody, V domains shown)
VH: EVQLVESGGGVVQPGRSLRLSCAASAFTFSSYDMHWVRQAPGKGLEWVAVISYDGSNKYYADSVKGRFTISRDNSKNTLYLQMNSLRAEDTAVYYCAKDGGKLWVYYFDYWGQGTLVTVSS
VL: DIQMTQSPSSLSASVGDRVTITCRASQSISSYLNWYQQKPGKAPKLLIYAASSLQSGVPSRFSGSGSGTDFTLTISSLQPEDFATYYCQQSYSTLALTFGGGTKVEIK
binds: [1] | [2] | [3] | [4] | [5] | [6] | [7] | [8] | [9] | [10]
